Laboratory results published in US8697369B2, “Method for screening a test substance for activating a receptor associated with FGF 21 activity” (National Institute of Advanced Industrial Science and …, priority 2007, dated 2014).

Key:
[1] = system: adipocytes differentiated from 3T3-L1 cells; assay: GLUT1 mRNA expression in 3T3-L1 cells differentiated into adipocytes; type: cell-based; conditions: various concentrations, 6 hours
Experimental: It has been reported that FGF21 allows adipocytes to increasingly express glucose transporter 1 (GLUT1). In the present example, as cultured adipocytes, there were used 3T3-L1 cells that are fibroblasts having the ability to differentiate into adipocytes by controlling culture conditions. The cells were cultured in a culture solution of a Dulbecco's modified Eagle medium (DMEM) containing 10% fetal bovine serum (FBS), so as to prepare cells maintaining an undifferentiated property as fibroblasts. The prepared cells were cultured in a test system, and they were allowed to grow to a confluent state. The cells were then left for 2 days. Thereafter, the culture solution was exchanged with DMEM as a culture solution used for differentiation induction, which comprised 10% FBS, 0.25 μM dexamethasone, 0.5 mM methyl isobutyl xanthine, and 5 μg/ml insulin. The cells were cultured for 2 days. […] The term “cells having the properties of adipocytes” is used herein to mean cells, which conduct intracellular metabolism specific to adipocytes and have cytoplasm in which large quantities of fat droplets are accumulated.
FGF21 were added in various types of concentrations to such different types of culture solutions, and the cells were further culture for 6 hours. Thereafter, RNA was extracted, and the copy number of GLUT1 was counted.

[2] = molecular target: T1, BaF3 cells that had co-expressed FGFR1c and Klotho (Mus musculus, UniProt O35082+P16092); assay: DNA synthesis in BaF3 cells co-expressing FGFR1c and Klotho; type: cell-based; conditions: presence or absence of heparin
T1 construct: the entire-length cDNA of mouse FGFR1c had been cloned; expressed in transfected cells; host or cells: BaF3 (mouse pro-B) cells
Experimental: Specifically, BaF3 cell that had co-expressed FGFR1c and betaKlotho and BaF3 cells that had co-expressed FGFR1c and Klotho were prepared by the same transformation method and under the same culture conditions as those applied in Example 4. Thereafter, FGF21 and FGF23 were added to both types of transformed cells in the presence or absence of heparin, and the amount of DNA synthesized was then measured.

[3] = molecular target: T2, betaKlotho (Mus musculus, UniProt Q99N32); assay: Co-precipitation of FGF21 with soluble betaKlotho protein (anti-V5 beads, immunoblotting); type: binding; conditions: presence or absence of heparin
T2 construct: a V5 tag and a His tag were added to the C-terminus of the extracellular domain of betaKlotho; made in house
T2 sequence (Q99N32 1-992): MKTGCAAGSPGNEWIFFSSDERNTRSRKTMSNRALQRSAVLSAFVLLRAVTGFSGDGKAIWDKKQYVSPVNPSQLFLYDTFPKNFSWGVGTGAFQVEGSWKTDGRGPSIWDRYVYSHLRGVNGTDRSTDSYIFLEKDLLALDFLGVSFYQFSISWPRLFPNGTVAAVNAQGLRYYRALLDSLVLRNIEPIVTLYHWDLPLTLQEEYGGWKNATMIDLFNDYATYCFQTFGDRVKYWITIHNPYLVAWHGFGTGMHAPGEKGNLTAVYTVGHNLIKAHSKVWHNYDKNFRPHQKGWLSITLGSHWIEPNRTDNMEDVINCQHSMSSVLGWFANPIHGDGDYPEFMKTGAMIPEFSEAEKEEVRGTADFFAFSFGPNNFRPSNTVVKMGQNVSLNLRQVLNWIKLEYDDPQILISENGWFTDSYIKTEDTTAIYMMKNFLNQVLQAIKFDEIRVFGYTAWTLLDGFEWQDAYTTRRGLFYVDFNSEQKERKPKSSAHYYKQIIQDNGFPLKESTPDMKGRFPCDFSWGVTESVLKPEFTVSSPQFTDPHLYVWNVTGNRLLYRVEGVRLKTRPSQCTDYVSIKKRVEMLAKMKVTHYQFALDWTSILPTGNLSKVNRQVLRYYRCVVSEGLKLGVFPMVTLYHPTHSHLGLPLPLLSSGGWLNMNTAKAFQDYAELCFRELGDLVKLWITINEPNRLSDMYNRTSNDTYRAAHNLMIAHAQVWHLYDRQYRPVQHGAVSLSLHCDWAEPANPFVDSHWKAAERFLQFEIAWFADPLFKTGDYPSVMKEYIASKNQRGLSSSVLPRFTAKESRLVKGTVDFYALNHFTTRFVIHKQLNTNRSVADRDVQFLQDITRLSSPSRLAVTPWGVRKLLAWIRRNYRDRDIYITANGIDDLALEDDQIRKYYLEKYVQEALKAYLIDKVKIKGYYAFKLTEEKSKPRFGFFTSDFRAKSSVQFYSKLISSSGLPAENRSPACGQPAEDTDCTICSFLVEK
Experimental: In the present example, the formation of a complex between betaKlotho and an FGF receptor or FGF21 was examined in a biochemical manner. Specifically, a V5 tag and a His tag were added to the C-terminus of the extracellular domain of betaKlotho in a tandem manner to prepare a soluble protein. Thereafter, the soluble betaKlotho protein was incubated with FGF21 in a test tube in the presence or absence of heparin, and betaKlotho was then precipitated using anti-V5 tag antibody-immobilized beads. Whether or not FGF21 bound to betaKlotho and was co-precipitated therewith was analyzed by an immunoblotting method.

[4] = system: 3T3-L1 fibroblasts forced to express betaKlotho; assay: Phosphorylation of FRS2 and MAPK in undifferentiated 3T3-L1 cells forced to express betaKlotho; type: cell-based; conditions: betaKlotho expression vector; FGF21 1.1 μg/ml and 4.5 μg/ml; 10 minutes
Experimental: (§1) A betaKlotho expression vector produced by the method described in Example 4 and an empty vector used as a control, into which betaKlotho cDNA had not been inserted, were introduced into 3T3-L1 fibroblasts cultured as described in Example 1 by a lipofection method, thereby obtaining Puromycin-resistant clones. These different types of cells were stimulated with FGF21, and 10 minutes after the stimulation, a cell lysate was prepared. The activation of FRS2 and MAPK that were signaling molecules located downstream of FGFR was examined by a Western blotting method.

[5] = system: undifferentiated 3T3-L1 cells that had not expressed betaKlotho; assay: Phosphorylation of FRS2 and MAPK in undifferentiated 3T3-L1 cells not expressing betaKlotho; type: cell-based; conditions: 10 minutes
Experimental: as §1

[6] = system: 3T3-L1 fibroblasts forced to express betaKlotho; assay: GLUT1 mRNA level in 3T3-L1 fibroblasts forced to express betaKlotho; type: cell-based; conditions: betaKlotho expression vector; various concentrations; 6 hours
Experimental: A betaKlotho expression vector or an empty vector used as a control, into which betaKlotho cDNA had not been inserted, were introduced into 3T3-L1 fibroblasts, and FGF21 was then added in various types of concentrations to a culture solution of the 3T3-L1 fibroblasts. The obtained mixture was cultured for 6 hours. Thereafter, RNA was extracted, and the mRNA level of GLUT1 was then measured.

T1 sequence (P16092 22-822): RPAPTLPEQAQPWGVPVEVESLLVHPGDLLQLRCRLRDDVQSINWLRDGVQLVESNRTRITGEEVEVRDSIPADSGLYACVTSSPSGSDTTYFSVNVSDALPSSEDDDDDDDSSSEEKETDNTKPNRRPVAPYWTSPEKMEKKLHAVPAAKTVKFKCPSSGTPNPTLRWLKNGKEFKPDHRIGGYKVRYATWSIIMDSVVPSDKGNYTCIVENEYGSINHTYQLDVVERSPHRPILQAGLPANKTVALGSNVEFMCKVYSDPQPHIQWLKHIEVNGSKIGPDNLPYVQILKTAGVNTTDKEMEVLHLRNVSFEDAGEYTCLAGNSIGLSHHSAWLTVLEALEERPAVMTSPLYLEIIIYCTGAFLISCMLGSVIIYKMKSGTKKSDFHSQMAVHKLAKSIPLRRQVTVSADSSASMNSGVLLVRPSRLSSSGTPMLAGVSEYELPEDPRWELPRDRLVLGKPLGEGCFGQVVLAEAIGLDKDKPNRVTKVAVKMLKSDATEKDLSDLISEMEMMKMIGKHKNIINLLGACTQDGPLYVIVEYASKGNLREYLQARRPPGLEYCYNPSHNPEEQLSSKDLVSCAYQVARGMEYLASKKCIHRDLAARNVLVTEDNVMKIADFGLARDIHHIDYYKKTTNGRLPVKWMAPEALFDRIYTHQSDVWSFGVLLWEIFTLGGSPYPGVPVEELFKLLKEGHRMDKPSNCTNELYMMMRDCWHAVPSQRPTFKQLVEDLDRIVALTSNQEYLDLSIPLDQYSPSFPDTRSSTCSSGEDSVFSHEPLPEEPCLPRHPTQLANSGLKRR
T1 sequence (O35082 35-1014): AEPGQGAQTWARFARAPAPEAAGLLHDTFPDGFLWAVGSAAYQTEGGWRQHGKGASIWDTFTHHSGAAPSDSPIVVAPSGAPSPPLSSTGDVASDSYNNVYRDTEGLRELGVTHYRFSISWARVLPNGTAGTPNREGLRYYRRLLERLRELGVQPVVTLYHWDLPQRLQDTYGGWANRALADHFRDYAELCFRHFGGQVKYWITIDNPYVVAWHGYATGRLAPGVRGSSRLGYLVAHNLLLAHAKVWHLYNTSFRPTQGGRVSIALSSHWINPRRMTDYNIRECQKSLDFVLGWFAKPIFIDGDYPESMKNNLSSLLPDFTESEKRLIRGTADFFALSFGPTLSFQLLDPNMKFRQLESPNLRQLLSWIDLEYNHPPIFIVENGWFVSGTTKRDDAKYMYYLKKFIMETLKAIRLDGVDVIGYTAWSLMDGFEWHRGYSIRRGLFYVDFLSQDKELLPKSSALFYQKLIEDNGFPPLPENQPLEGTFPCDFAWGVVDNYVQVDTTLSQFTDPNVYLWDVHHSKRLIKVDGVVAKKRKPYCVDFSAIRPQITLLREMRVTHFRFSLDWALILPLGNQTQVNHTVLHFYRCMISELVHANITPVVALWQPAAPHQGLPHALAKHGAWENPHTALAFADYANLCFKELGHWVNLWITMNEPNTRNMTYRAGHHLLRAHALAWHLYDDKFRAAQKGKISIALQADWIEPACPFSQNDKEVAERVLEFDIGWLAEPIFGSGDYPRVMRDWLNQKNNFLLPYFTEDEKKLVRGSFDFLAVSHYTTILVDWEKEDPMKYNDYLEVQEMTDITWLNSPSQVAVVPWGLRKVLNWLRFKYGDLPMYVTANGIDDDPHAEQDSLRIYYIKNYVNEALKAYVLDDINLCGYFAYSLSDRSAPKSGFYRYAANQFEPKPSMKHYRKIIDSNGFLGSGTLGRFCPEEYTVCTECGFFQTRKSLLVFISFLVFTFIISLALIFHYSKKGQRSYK

- amount of DNA synthesized [2]: did not react with FGFR1c
B1: FGF21: fibroblast growth factor 21; mouse-derived protein used in Examples 1-7 and 10-13 (protein)
chain: AYPIPDSSPLLQFGGQVRQRYLYTDDDQDTEAHLEIREDGTVVGAAHRSPESLLELKALKPGVIQILGVKASRFLCQQPDGALYGSPHFDPEACSFRELLLEDGYNVYQSEAHGLPLRLPQKDSPNQDATSWGPVRFLPMPGLLHEPQDQAGFLPPEPPDVGSSDPLSMVEPLQGRSPSYAS
- expression level of GLUT1 mRNA [1]: increased
- co-precipitation (binding) with soluble betaKlotho protein [3]: precipitated in the presence of betaKlotho
- phosphorylation levels of FRS2 and MAPK [4]: increased
- phosphorylated state of FRS2 and MAPK [5]: do not change
- mRNA level of GLUT1 [6]: increased depending on the amount of FGF21
